Measurements reported in patent publication US20230212511A1.

Columns and labels:
[1] = target: mutant truncated (mt) TpoR, lacking the final five amino acids (human) (UniProt P40238); assay: cell-based or functional assay
[2] = target: full length human TpoR (wild type), expressed on transduced cells (human) (UniProt P40238); assay: cell-based or functional assay

recombinant human Tpo (Miltenyi Biotec) (from UniProt P40225 22-195) (ligand)
enrichment of TpoR positive primary human T-cells (from 20% transduced) in the presence of Tpo (% TpoR positive) [1]: 77.9
enrichment of TpoR positive primary human T-cells (from 20% transduced) in the presence of Tpo (% TpoR positive) [2]: 87.5
